Laboratory results as given in patent publication US11236367B2, “Fatty acid decarboxylase and its uses” (COMMISSARIAT A L'ENERGIE ATOMIQUE ET AUX ENERGIES …, priority 2016, dated 2022).

B1: Phaeodactylum enzyme: GMC oxidoreductase of the diatom Phaeodactylum tricornutum expressed in Escherichia coli (protein, listed as Phaeodactylum tricornutum)
chain: YDYIICGGGLAGCVLAERLSQDESKRVLVLEAGGSDYKSLFIRIPAGVLRLFRSKYDWQHETGGEKGCNGRNVFLQRGKILGGSSCTNVCLHHRGSAEDYNSWNIPGWTATDVLPFFKQSQKDETGRDATFHGADGEWVMDEVRYQNPLSKLFLEVGEAAGLGTNDDFNNWSHPQDGVGRFQVSEVNGERCSGATAFLSKAAKRSNVIVRTGTMVRRIDFDETKTAKGITYDLMGDDTCTTFQACLKEGGEVLVTGGAIASPQLLMCSGIGPGKHLRSLGIPVVHDNSAVGENLQDHPAAVVSFKTPQKGVSVTSKLRLFGKTNPIPVFQWLFFKSGLLTSTGCDHGAFVRTSDSLEQPDLQIRFLAARALGPDGMTTYTKFRTMKTVEDGYSFQSVACRAKSKGRIRLSSSNSHVKPMIDGGYLSNQDDLATLRAGIKLGRMLGNRPEWGEYLGQEVYPGPDVQTDEEIDEYIRNSLHTANALTGTCKMGTGRGAVVGPDLRVIGVNGVRVGDSSVFPCIPGGQTATPTVMIGDRAAVFVRQPVSQLNIEIFREKGGTHPGATTASA
B2: Chlorella GMC oxidoreductase: GMC protein from Chlorella variabilis NC64A; 69 kDa FAD-dependent fatty acid decarboxylase (alkane synthase) (protein, listed as Chlorella variabilis)
chain: RASAVEDIRKVLSDSSSPVAGQKYDYILVGGGTAACVLANRLSADGSKRVLVLEAGPDNTSRDVKIPAAITRLFRSPLDWNLFSELQEQLAERQIYMARGRLLGGSSATNATLYHRGAAGDYDAWGVEGWSSEDVLSWFVQAETNADFGPGAYHGSGGPMRVENPRYTNKQLHTAFFKAAEEVGLTPNSDFNDWSHDHAGYGTFQVMQDKGTRADMYRQYLKPVLGRRNLQVLTGAAVTKVNIDQAAGKAQALGVEFSTDGPTGERLSAELAPGGEVIMCAGAVHTPFLLKHSGVGPSAELKEFGIPVVSNLAGVGQNLQDQPACLTAAPVKEKYDGIAISDHIYNEKGQIRKRAIASYLLGGRGGLTSTGCDRGAFVRTAGQALPDLQVRFVPGMALDPDGVSTYVRFAKFQSQGLKWPSGITMQLIACRPQSTGSVGLKSADPFAPPKLSPGYLTDKDGADLATLRKGIHWARDVARSSALSEYLDGELFPGSGVVSDDQIDEYIRRSIHSSNAITGTCKMGNAGDSSSVVDNQLRVHGVEGLRVVDASVVPKIPGGQTGAPVVMIAERAAALLTGKATIGASAAAPATVAA
B3: Chlamydomonas enzyme: GMC oxidoreductase of Chlamydomonas reinhardtii expressed in Escherichia coli (protein, listed as Chlamydomonas reinhardtii)
chain: LSVRAAAGPAGSEKFDYVLVGGGTASCVLANKLSADGNKKVLVLEAGPTGDAMEVAVPAGITRLFAHPVMDWGMSSLTQKQLVAREIYLARGRMLGGSSGSNATLYHRGSAADYDAWGLEGWSSKDVLDWFVKAECYADGPKPYHGTGGSMNTEQPRYENVLHDEFFKAAAATGLPANPDFNDWSHPQDGFGEFQVSQKKGQRADTYRTYLKPAMARGNLKVVIGARATKVNIEKGSSGARTTGVEYAMQQFGDRFTAELAPGGEVLMCSGAVHTPHLLMLSGVGPAATLKEHGIDVVSDLSGVGQNLQDHPAAVLAARAKPEFEKLSVTSEVYDDKCNIKLGAVAQYLFQRRGPLATTGCDHGAFVRTSSSLSQPDLQMRFVPGCALDPDGVKSYIVFGELKKQGRAWPGGITLQLLAIRAKSKGSIGLKAADPFINPAININYFSDPADLATLVNAVKMARKIAAQEPLKKYLQEETFPGERASSDKDLEEYIRRTVHSGNALVGTAAMGASPAAGAVVSSADLKVFGVEGLRVVDASVLPRIPGGQTGAATVMVAERAAALLRGQATIAPSRQPVAV

Columns and labels:
[1] = test system: E. coli cells; assay: Hydrocarbon content of E. coli cells expressing algal GMC oxidoreductase; format: cell-based, Escherichia coli; settings: no fatty acid substrate added; absent with empty vector
Source text: Chlamydomonas reinhardtii and Phaeodactylum tricornutum Alkane synthase was amplified from a synthetic gene codon-optimized for E. coli using for Chlamydomonas reinhardtii a primer forward 5′-[…]-3′ (SEQ ID No 29) and a primer reverse, 5′-[…]-3′ (SEQ ID No 30). For Phaeodactylum tricornutum, forward primer 5′-[…]-3′ (SEQ ID No 31), reverse primer 5′-[…]-3′ (SEQ ID No 32). Genes were cloned into pLIC07 vector, which introduced downstream of the ATG start codon a cassette coding for a 6 His-tagged thioredoxin and a tobacco etch virus (TEV) protease-cleavage site. E. coli strain expressing the GMC oxidase from Chlorella variabilis NC64A, Chlamydomonas reinhardtii or Phaeodactylum triconutum were grown at 37° C. with agitation at 180 rpm and light at 100 μmole.photon.m^−2·s^−1. When OD reached 0.6, 500 μM of isopropyl β-D-1-thiogalactopyranoside was added. Cells were then grown for 24 hours at 37° C., harvested, transmethylated using methanol added with 5% sulfuric acid and hydrocarbons were extracted with hexane and analyzed by GC-MS as previously described.

[2] = molecular target: T1, Chlorella GMC oxidoreductase (Chlorella variabilis, UniProt A0A248QE08); assay: Enzymatic assay with purified recombinant enzyme (GC-MS of products); format: biochemical, Chlorella variabilis NC64A; settings: for fatty acid substrate range of the enzyme: purified recombinant enzyme, white light
T1 construct: 6 His-tagged thioredoxin (N, cleaved yes); TEV protease-cleavage site (N, cleaved yes); made in house; host or cells: E. coli BL21-CodonPlus (DE3)-RIL
Procedure: (§1) All assays were performed in transparent glass vials sealed using caps with septum. Optimum pH was determined using a Teorell Stenhagen universal buffer (33 mM citric acid monohydrate, 33 mM phosphoric acid, 100 mM NaOH, 16.7 mM of boric acid, pH 8.5 adjusted with 1N HCl). Other assays were performed in 100 mM Tris HCl pH 8.5, 100 mM NaCl. Reaction mixtures (500 μL) typically contained 160 nM purified enzyme (stock ? solution 2.5 mg ml^−1) and 400 μM substrate (stock solution 10 mM in ethanol). In some assays, a lipase was used with the alkane synthase. In this case, substrate was a triacylglycerol. Generally, samples were shaken at 200 rpm during 15 min under LED-made white light at 2000 μmol ? photons m^−2s^−1. After the incubations, samples were heated at 95° C. during 15 min to stop the enzymatic reaction. Samples were cooled down and internal standard (hexadecane) was added (45 nmol from a 4.5 mM stock solution in chloroform). NaOH was then added to the reaction mixture (10 μL from a stock solution of 10 M) and samples were vortexed for 5 min. Then 250 μL of hexane was added and samples were vortexed for 5 min to extract alkanes and alkenes. The hexane phase was collected by centrifugation and analyzed by GC-MS-FID. The analysis was done by direct injection of 100 μl of the headspace into a GC-MS. In FIG. 11 activity on 1-^13C-palmitate was monitored by release of ^13CO2 using membrane inlet mass spectrometry. Illuminations were provided by CBT-120 LEDs (Luminous, Billerica) either blue (peak at 460 nm, 25 nm FWHM), or red (peak at 635 nm, 15 nm FWHM) at an intensity of 850 μmol photons m^−2 s^−1.

[3] = test system: E. coli cells; assay: Co-expression in E. coli of a GMC oxidoreductase and a lipase; format: cell-based, Escherichia coli; settings: compared to E. coli strains expressing the GMC oxidoreductases alone
Procedure: E. coli strain transformed with a vector expressing the GMC oxidase from Chlorella variabilis NC64A (or Chlamydomonas reinhardtii) and/or a vector expressing the lipase from the bacterium Staphylococcus hyicus, were grown in TB medium at 37° C. Expression was induced with 1 mM of isopropyl β-D-1-thiogalactopyranoside (added with 0.2% arabinose for co-expression). Cells were then grown overnight at 25° C. at 100 μmole.photon.m^−2·s^−1 and 6 h at 2000 μmole.photon.m^−2·s^−1. Cells were harvested (4 ml at OD=5), transmethylated using methanol added with 5% sulfuric acid and hydrocarbons were analyzed by SPME and GC-MS as previously described.

[4] = test system: Chlamydomonas strain; assay: Hydrocarbons in Chlamydomonas strain with chloroplast genome transformed with the Chlorella enzyme cDNA; format: cell-based, Chlamydomonas reinhardtii; settings: chloroplastic genome transformed with cDNA of the enzyme
Procedure: Chlamydomonas reinhardtii CC124 (nit1 nit2; mt−) and Chlamydomonas reinhardtii overexpressing the alkane synthase gene were cultured in minimal medium (Harris, 1989) in one liter photobioreactors (BIOSTAT Aplus, Sartorius Stedim Biotech) operated as turbidostats. A880 was measured continuously using a biomass probe (Excellprobe, Exner) and cultures were maintained at constant A880 by injection of fresh medium. The pH was maintained at a constant value of 7 by injection of KOH (0.2 N) or HCl (0.2 N). The cultures were stirred using a metal propeller (250 rpm). The gas flow rate was adjusted to 0.5 L min^−1. Air enriched with 2% (v/v) CO2 was generated using mass flow meters (EL flow, Bronkhorst). White light was supplied by eight fluorescent tubes (Osram Dulux L 18 W) placed radially around the photobioreactor. We used a blue filter (363 special medium blue, Lee filters, USA) and a red filter (113 magenta, Lee filters, USA) to provide respectively blue and red light. Both lights were at same intensity (35 μmol photons m^−2s^−1).
To quantify hydrocarbons together with fatty acids, transmethylation of whole cells was used. […]

[5] = molecular target: T1, Chlorella GMC oxidoreductase; assay: 13CO2 release from 1-13C-palmitate with the purified enzyme (membrane inlet mass spectrometry); format: biochemical, Chlorella variabilis NC64A; settings: CO2 production monitored, light on/off
Procedure: as §1, with “Then 250 μL of hexane was added and samples were vortexed for 5 min to extract alkanes and alkenes.” left out, “The analysis was done by direct injection of 100 μl of the headspace into a GC-MS.” left out, “Illuminations were provided by CBT-120 LEDs (Luminous, Billerica) either blue (peak at 460 nm, 25 nm FWHM), or red (peak at 635 nm, 15 nm FWHM) at an intensity of 850 μmol photons m^−2 s^−1.” left out
Online measurements of ^12CO2 (m/z=44) and ^13CO2 (m/z=45) were monitored using mass spectrometry (model Prima B, Thermo Scientific). […]

Row | Molecule | hydrocarbons formed in E. coli cells expressing the enzyme [1] | dependence of pentadecane production on light intensity [2] | fatty acid substrate range of the enzyme [2] | fatty acid substrate range of the enzyme ([2]; listed as Chlorella alkane synthase) | increase in most hydrocarbons on co-expression with bacterial lipase (Uniprot P04635) [3] | change of hydrocarbon content in transformed Chlamydomonas strain [4] | dependence of enzyme activity on light [5]
1 | B1 | albeit in lower amounts | – | – | – | – | – | –
2 | B2 | presence of long chain alkanes from 13 to 17 carbons | increases linearly with light intensity | active on a variety of saturated free fatty acids ranging from C12 to C22 carbons | can use C12 to C22 fatty acids | two to three-fold increase | an increase was noted in the heptadecene content, and heptadecane also appeared | stops immediately when light is turned off
3 | B3 | formation in E. coli cells of pentadecane and heptadecane as well as their monounsaturated analogs | – | – | – | two to three-fold increase | – | –
